# Measured values taken from patent US20170320947A1 (published 2017).
# T1: Cyno PSMA
# T1 chain: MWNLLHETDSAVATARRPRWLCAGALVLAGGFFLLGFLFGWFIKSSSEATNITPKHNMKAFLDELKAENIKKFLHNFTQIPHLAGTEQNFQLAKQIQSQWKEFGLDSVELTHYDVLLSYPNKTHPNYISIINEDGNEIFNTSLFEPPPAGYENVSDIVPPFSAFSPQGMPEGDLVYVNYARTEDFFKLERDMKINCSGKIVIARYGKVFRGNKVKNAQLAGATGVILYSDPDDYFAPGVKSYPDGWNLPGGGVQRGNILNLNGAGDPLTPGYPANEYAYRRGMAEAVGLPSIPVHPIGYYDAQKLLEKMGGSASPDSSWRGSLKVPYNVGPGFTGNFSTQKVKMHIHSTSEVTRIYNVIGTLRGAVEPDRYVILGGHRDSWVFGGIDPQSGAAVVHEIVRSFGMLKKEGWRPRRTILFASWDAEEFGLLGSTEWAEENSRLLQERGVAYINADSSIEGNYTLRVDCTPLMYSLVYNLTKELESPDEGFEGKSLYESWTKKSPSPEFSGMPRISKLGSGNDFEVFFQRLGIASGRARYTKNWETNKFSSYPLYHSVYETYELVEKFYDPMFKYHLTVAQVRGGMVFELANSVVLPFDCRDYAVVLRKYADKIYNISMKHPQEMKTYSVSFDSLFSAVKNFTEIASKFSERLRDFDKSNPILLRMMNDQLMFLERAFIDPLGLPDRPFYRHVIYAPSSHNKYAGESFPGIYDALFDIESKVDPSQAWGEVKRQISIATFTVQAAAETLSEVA
# B1: XENP14484 (bispecific antibody)
# heavy: EVQLVQSGAEVKKPGASVKVSCKTSGYTFTEYTIHWVRQAPGQSLEWMGNINPNNGGTTYNQKFQGRVTITVDKSTSTAYMELSSLRSEDTAVYYCAAGWNFDYWGQGTLVTVSSASTKGPSVFPLAPSSKSTSGGTAALGCLVKDYFPEPVTVSWNSGALTSGVHTFPAVLQSSGLYSLSSVVTVPSSSLGTQTYICNVNHKPSDTKVDKKVEPKSCDKTHTCPPCPAPPVAGPSVFLFPPKPKDTLMISRTPEVTCVVVDVKHEDPEVKFNWYVDGVEVHNAKTKPREEEYNSTYRVVSVLTVLHQDWLNGKEYKCKVSNKALPAPIEKTISKAKGQPREPQVYTLPPSREEMTKNQVSLTCDVSGFYPSDIAVEWESDGQPENNYKTTPPVLDSDGSFFLYSKLTVDKSRWEQGDVFSCSVMHEALHNHYTQKSLSLSPGK
# scFv-Fc: not shown
# light: DIVMTQSPDSLAVSLGERATLSCRASQDVGTAVDWYQQKPDQSPKLLIYWASTRHTGVPDRFTGSGSGTDFTLTISSLQAEDVAVYFCQQYNSYPLTFGAGTKVEIKRTVAAPSVFIFPPSDEQLKSGTASVVCLLNNFYPREAKVQWKVDNALQSGNSQESVTEQDSKDSTYSLSSTLTLSKADYEKHKVYACEVTHQGLSSPVTKSFNRGEC
# Columns and labels:
# Cyno PSMA = biological target: T1, Cyno PSMA; test: BLI (Octet)
# Human PSMA = test: BLI (Octet)
binder,measurement,setting,value
B1,Kd,Cyno PSMA,0.2 nM
same,Kd,Human PSMA,0.4 nM
